Assay [1] concerns the target T1, Blys (human, UniProt Q9Y275 134-285, limits assumed). In words: cell-based or functional assay.
Assay [2] has as its target T1, Blys. In words: SPR, Biacore T200, antibody captured by goat anti-human IgG on a CM5 chip, 300 nM BLYS as analyte.
A further assay has as its target T2, Blys-His融合蛋白(含6×His标签) (human, UniProt Q9Y275 134-285).
T2 construct: Expressed in CHO-K1 cells and purified on a Ni column; The background says that Blys acts as a homotrimer and that residues 133-285 are the main functional region; also called 重组人BLYS; not shown: 6×His tag
In words: ELISA, Blys-His coated, 1:4 serial dilutions of antibody, mouse anti-human IgG-HRP. In general terms: An ELISA detects its analyte on a solid surface through an enzyme-linked reagent.

B1: Belimumab (antibody, V domains shown)
VH: QVQLQQSGAEVKKPGSSVRVSCKASGGTFNNNAINWVRQAPGQGLEWMGGIIPMFGTAKYSQNFQGRVAITADESTGTASMELSSLRSEDTAVYYCARSRDLLLFPHHALSPWGRGTMVTVSS
VL: SSELTQDPAVSVALGQTVRVTCQGDSLRSYYASWYQQKPGQAPVLVIYGKNNRPSGIPDRFSGSSSGNTASLTITGAQAEDEADYYCSSRDSSGNHWVFGGGTELTVLG
As to B1, in the assay with Blys [1], the “抑制Blys刺激的鼠脾细胞增殖 IC50” value was 8.25 ng/mL. The molecule also came in with a Kd in the assay with Blys [2] of 1.37 nM.

B2: NMB01 (antibody, V domains shown)
VH: EVQLVESGGGLVQPGGSLRLSCAASGFTFSTFGMNWVRQAPGKGLEWVSYISSGSSTIYYADTVKGRFTISRDNAKNSLYLQMNSLRAEDTAVYYCARLGDPLLRPKGNAMDYWGQGTLVTVSS
VL: DIQMTQSPSSLSASVGDRVTITCLASQTIGTWLAWYQQKPGKAPKLLIYAATRKADGVPSRFSGSGSGTDFTLTISSLQPEDFATYYCQQLYSSPWTFGGGTKVEIK
In the assay with Blys-His融合蛋白(含6×His标签), B2 returned an EC50 of 0.0292 nM.

One may read the Kd as the concentration at which binding is half-saturated. As usually defined, the EC50 is the midpoint of the concentration-response curve. Low values mean higher potency in that assay, high ones lower potency in that assay.

Values taken from patent CN105061596A (JIANGSU NOVOMAB BIOPHARMACEUTICAL INC, dated 2015).
